The source of these data is patent US20240376208A1 (AFFIMED, published 2024).

The target of experiment [1] is T1, EGFR on tumor target cells (MCF-7, Daudi, DK-MG, HCT-116) (UniProt P00533 25-1210, limits assumed). Description: cell-based or functional assay.
Experiment [2] deals with CD16A on primary human NK cells (human, UniProt P08637 17-254). Put plainly: cell-based or functional assay.
Experiment [3] deals with T2, biotinylated monomeric CD16A antigen (human, UniProt P08637 17-208, limits assumed, biotinylated (site not stated)).
T2 construct: Soluble antigen; also called soluble CD16A antigen
Put plainly: ELISA, biotinylated monomeric CD16A titrated on construct captured by coated His-tagged human EGFR extracellular domain. On the procedure: (§1) For the capturing approach, 96-well ELISA plates (Immuno Maxisorp, Nunc) were coated overnight at 4° C. with His-tagged human EGFR or BCMA extracellular domain at concentrations of 3.0 or 0.4 μg/mL, respectively. After blocking with 3% (w/v) skimmed milk powder dissolved in phosphate buffered saline (PBS), antigen coated plates were used for capturing of different multivalent bispecific engagers at concentrations of 3-5 μg/mL in PBS containing 0.3% (w/v) skimmed milk powder. After washing three times with 300 μL per well of PBS containing 0.1% (v/v) Tween 20, plates were incubated with serial dilutions of biotinylated dimeric or monomeric CD16A antigen in PBS containing 0.3% (w/v) skimmed milk powder for 1.5 h at room temperature. After washing, plates were incubated with the detection conjugate Streptavidin HRP, 1:10,000 diluted in PBS containing 0.3% (w/v) skimmed milk powder for 1 h followed by washing and incubation with tetramethylbenzidine substrate (Seramun) for 1-2 min. Reaction was stopped by addition of 0.5 M H₂SO₄ (100 μL/well). Absorbance was measured at 450 nm using a multiwell plate reader, plotted and EC₅₀ values were determined by fitting a nonlinear regression model to sigmoidal dose-response curves (four parameters logistic fit) using GraphPad Prism software.
(§2) Concentration dependent binding of antibody constructs to coated recombinant CD16A antigen, or of soluble monomeric or dimeric CD16 antigen variants to coated or target antigen captured antibody constructs was analyzed in ELISA. Half maximal binding concentrations (EC₅₀) were determined by fitting a nonlinear regression model to sigmoidal dose-response curves (four parameters logistic fit) using GraphPad Prism software.
(ELISA stands for enzyme-linked immunosorbent assay.)

For experiment [4], the target named is T3, biotinylated dimeric CD16A antigen (human, UniProt P08637 17-208, limits assumed, biotinylated (site not stated)).
T3 construct: Soluble antigen; also called soluble CD16A antigen
Description: ELISA, biotinylated dimeric CD16A titrated on coated construct. On the procedure: as §1, §2

Experiment [5] concerns the target T4, recombinant CD16A 158F fused to monomeric human Fc (human, UniProt P08637 17-208).
T4 construct: also called recombinant CD16 antigen variant; not shown: monomeric human Fc
Put plainly: ELISA, construct titrated on coated CD16A 158F fused to monomeric human Fc. On the procedure:
To assess binding of EGFR/CD16 or BCMA/CD16 antibodies to coated antigen in ELISA, 96-well ELISA plates (Immuno Maxisorp, Nunc) were coated overnight at 4° C. with recombinant CD16 antigen variants fused to monomeric human Fc at a concentration of 1.5 μg/mL in 100 mM carbonate-bicarbonate buffer. After blocking with 3% (w/v) skimmed milk powder dissolved in phosphate buffered saline (PBS) serial dilutions of bispecific antibody constructs were incubated on the antigen coated plates for 1.5 h at room temperature. […] After washing, plates were incubated with tetramethylbenzidine substrate (Seramun) for 1-2 min. Reaction was stopped by addition of 0.5 M H₂SO₄ (100 μL/well). Absorbance was measured at 450 nm using a multiwell plate reader, plotted and EC₅₀ values were determined by fitting a nonlinear regression model to sigmoidal dose-response curves (four parameters logistic fit) using GraphPad Prism software.
as §2

Experiment [6] concerns the target recombinant CD16A 158V fused to monomeric human Fc (human, UniProt P08637 17-208). Description: ELISA, construct titrated on coated CD16A 158V fused to monomeric human Fc.
The target in experiment [7] is T2, biotinylated monomeric CD16A antigen. Description: ELISA, biotinylated monomeric CD16A titrated on coated construct. On the procedure: as §1, §2
The target in experiment [8] is T3, biotinylated dimeric CD16A antigen. Put plainly: ELISA, biotinylated dimeric CD16A titrated on construct captured by coated His-tagged human EGFR extracellular domain. On the procedure: as §1, §2
The target in experiment [9] is T1, EGFR on tumor target cells (MCF-7, …). Put plainly: cell-based or functional assay. This is another data set of the same source.
For experiment [10] the target is unchanged. Description: cell-based or functional assay. The source holds these as a separate data set.

Where two headings read alike, the source gives them in different places.

T3 sequence (P08637 17-208 limits assumed): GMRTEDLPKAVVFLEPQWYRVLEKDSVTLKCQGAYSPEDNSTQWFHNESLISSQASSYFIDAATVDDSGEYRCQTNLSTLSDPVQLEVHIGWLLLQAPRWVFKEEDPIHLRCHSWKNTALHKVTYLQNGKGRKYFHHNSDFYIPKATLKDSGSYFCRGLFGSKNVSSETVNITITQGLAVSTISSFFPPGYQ
T2 sequence (P08637 17-208 limits assumed): as above
T4 sequence (P08637 17-208): as the sequence (P08637 17-208 limits assumed) above
Sequence of CD16A on primary human NK cells (P08637 17-254 limits assumed): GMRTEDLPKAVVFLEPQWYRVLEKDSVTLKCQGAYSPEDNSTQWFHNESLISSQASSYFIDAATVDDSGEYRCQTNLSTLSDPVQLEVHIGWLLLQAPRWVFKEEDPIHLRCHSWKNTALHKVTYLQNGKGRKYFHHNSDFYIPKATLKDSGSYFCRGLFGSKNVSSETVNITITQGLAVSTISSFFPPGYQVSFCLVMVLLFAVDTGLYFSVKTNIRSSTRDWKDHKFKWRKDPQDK
Sequence of recombinant CD16A 158V fused to monomeric human Fc (P08637 17-208 F176V): as the sequence (P08637 17-208 limits assumed) above, with F160V counted along it

B1: aBi-scDb-Fc_05 (bispecific antibody)
chain 1: DKTHTCPPCPAPEFEGGPSVFLFPPKPKDTLMISRTPEVTCVVVAVSHEDPEVKFNWYVDGVEVHNAKTKPREEQYNSTYRVVSVLTVLHQDWLNGKEYKCKVSNKALPAPIEKTISKAKGQPREPQVYTLPPSREEMTKNQVSLTCLVKGFYPSDIAVEWESNGQPENNYKTTPPVLDSDGSFFLTSKLTVDKSRWQQGNVFSCSVMHEALHNHYTQKSLSLSPGGGGGSGGGGSSYVLTQPSSVSVAPGQTATISCGGHNIGSKNVHWYQQRPGQSPVLVIYQDNKRPSGIPERFSGSNSGNTATLTISGTQAMDEADYYCQVWDNYSVLFGGGTKLTVLGGSGGSQVQLVQSGAEVKKPGESLKVSCKASGYTFTSYYMHWVRQAPGQGLEWMGAIEPMYGSTSYAQKFQGRVTMTRDTSTSTVYMELSSLRSEDTAVYYCARGSAYYYDFADYWGQGTLVTVSSGGSGGSGGSGGSGGSGGSSYVLTQPSSVSVAPGQTATISCGGHNIGSKNVHWYQQRPGQSPVLVIYQDNKRPSGIPERFSGSNSGNTATLTISGTQAMDEADYYCQVWDNYSVLFGGGTKLTVLGGSGGSQVQLVQSGAEVKKPGESLKVSCKASGYTFTSYYMHWVRQAPGQGLEWMGAIEPMYGSTSYAQKFQGRVTMTRDTSTSTVYMELSSLRSEDTAVYYCARGSAYYYDFADYWGQGTLVTVSSAAAGSHHHHHH
chain 2: QVQLQESGPGLVKPSETLSLTCTVSGGSVSSGSYYWSWIRQPPGKGLEWIGYIYYSGSTNYNPSLKSRVTISVDTSKNQFSLKLSSVTAADTAVYYCARNPISIPAFDIWGQGTMVTVSSGGSGGSGGSGGSGGSGGSQPVLTQPPSVSVAPGKTARITCGGNNIGSKSVHWYQQKPGQAPVLVIYYDSDRPSGIPERFSGSNSGNTATLTISRVEAGDEADYYCQVWDTSSDHVLFGGGTKLTVLDKTHTCPPCPAPEFEGGPSVFLFPPKPKDTLMISRTPEVTCVVVAVSHEDPEVKFNWYVDGVEVHNAKTKPREEQYNSTYRVVSVLTVLHQDWLNGKEYKCKVSNKALPAPIEKTISKAKGQPREPQVYTLPPSREEMTKNQVSLYCLVKGFYPSDIAVEWESNGQPENNYKTTPPVLDSDGSFFLYSKLTVDKSRWQQGNVFSCSVMHEALHNHYTQKSLSLSPGGGGGSGGGGSSYVLTQPSSVSVAPGQTATISCGGHNIGSKNVHWYQQRPGQSPVLVIYQDNKRPSGIPERFSGSNSGNTATLTISGTQAMDEADYYCQVWDNYSVLFGGGTKLTVLGGSGGSQVQLVQSGAEVKKPGESLKVSCKASGYTFTSYYMHWVRQAPGQGLEWMGAIEPMYGSTSYAQKFQGRVTMTRDTSTSTVYMELSSLRSEDTAVYYCARGSAYYYDFADYWGQGTLVTVSSGGSGGSGGSGGSGGSGGSSYVLTQPSSVSVAPGQTATISCGGHNIGSKNVHWYQQRPGQSPVLVIYQDNKRPSGIPERFSGSNSGNTATLTISGTQAMDEADYYCQVWDNYSVLFGGGTKLTVLGGSGGSQVQLVQSGAEVKKPGESLKVSCKASGYTFTSYYMHWVRQAPGQGLEWMGAIEPMYGSTSYAQKFQGRVTMTRDTSTSTVYMELSSLRSEDTAVYYCARGSAYYYDFADYWGQGTLVTVSSGAAEPEA
notes: Asymmetric knob/hole Fc construct with four anti-CD16A Fv domains and only one anti-EGFR Fv domain; all other places print 158 and 159
B1: the “EC50 [pM], 4 h calcein-release cytotoxicity on Daudi target cells, NK cells E:T 5:1” value in experiment [1] was 39.9 pM. The “Emax [%], 4 h calcein-release cytotoxicity on Daudi target cells, NK cells E:T 5:1” value in [1] is 27.2%. In [2], the “Emax [%], 4 h calcein-release NK cell fratricide assay, E:T 1:1” value was 27.1%. Besides, the EC50 (in general, the concentration at which the effect is half-maximal) came out at 5540 pM in experiment [3]; 990 pM in experiment [4]; 200 pM in [5]; 160 pM in experiment [6]; 4510 pM in [7]; 3000 pM in [8]. Also, in [9], the “EC50 [pM], 4 h calcein-release cytotoxicity on MCF-7 target cells, NK cells E:T 5:1” value was 5 pM. The “Emax [%], 4 h calcein-release cytotoxicity on MCF-7 target cells, NK cells E:T 5:1” value in [9] is 34.2%.

B2: Bi-scDb-Fc_02 (bispecific antibody, human IgG1)
chain: QVQLQESGPGLVKPSETLSLTCTVSGGSVSSGSYYWSWIRQPPGKGLEWIGYIYYSGSTNYNPSLKSRVTISVDTSKNQFSLKLSSVTAADTAVYYCARNPISIPAFDIWGQGTMVTVSSGGSGGSGGSGGSGGSGGSQPVLTQPPSVSVAPGKTARITCGGNNIGSKSVHWYQQKPGQAPVLVIYYDSDRPSGIPERFSGSNSGNTATLTISRVEAGDEADYYCQVWDTSSDHVLFGGGTKLTVLEPKSCDKTHTCPPCPAPEFEGGPSVFLFPPKPKDTLMISRTPEVTCVVVAVSHEDPEVKFNWYVDGVEVHNAKTKPREEQYNSTYRVVSVLTVLHQDWLNGKEYKCKVSNKALPAPIEKTISKAKGQPREPQVYTLPPSREEMTKNQVSLTCLVKGFYPSDIAVEWESNGQPENNYKTTPPVLDSDGSFFLYSKLTVDKSRWQQGNVFSCSVMHEALHNHYTQKSLSLSPGGGGGSGGGGSSYVLTQPSSVSVAPGQTATISCGGHNIGSKNVHWYQQRPGQSPVLVIYQDNKRPSGIPERFSGSNSGNTATLTISGTQAMDEADYYCQVWDNYSVLFGGGTKLTVLGGSGGSQVQLVQSGAEVKKPGESLKVSCKASGYTFTSYYMHWVRQAPGQGLEWMGAIEPMYGSTSYAQKFQGRVTMTRDTSTSTVYMELSSLRSEDTAVYYCARGSAYYYDFADYWGQGTLVTVSSGGSGGSGGSGGSGGSGGSSYVLTQPSSVSVAPGQTATISCGGHNIGSKNVHWYQQRPGQSPVLVIYQDNKRPSGIPERFSGSNSGNTATLTISGTQAMDEADYYCQVWDNYSVLFGGGTKLTVLGGSGGSQVQLVQSGAEVKKPGESLKVSCKASGYTFTSYYMHWVRQAPGQGLEWMGAIEPMYGSTSYAQKFQGRVTMTRDTSTSTVYMELSSLRSEDTAVYYCARGSAYYYDFADYWGQGTLVTVSS
notes: Anti-EGFR scFv - silenced Fc - anti-CD16A scDb; Four anti-CD16A and two anti-EGFR Fv domains
B2: the “EC50 [pM], 4 h calcein-release cytotoxicity on Daudi target cells, NK cells E:T 5:1” value in [1] was 20.5 pM. Moreover, the “Emax [%], 4 h calcein-release cytotoxicity on Daudi target cells, NK cells E:T 5:1” value in [1] was 32.6%; in [10] it was 18.4%. Besides, the “Emax [%], 4 h calcein-release NK cell fratricide assay, E:T 1:1” value in experiment [2] was 23%. The EC50 in experiment [3] is 1740 pM; in experiment [4], 970 pM; in experiment [5] it was 130 pM; in [6] it was 110 pM; in [7], 3100 pM; in [8], 790 pM. In addition, in experiment [9], the “EC50 [pM], 4 h calcein-release cytotoxicity on MCF-7 target cells, NK cells E:T 5:1” value is 1.9 pM. Moreover, in experiment [9], the “Emax [%], 4 h calcein-release cytotoxicity on MCF-7 target cells, NK cells E:T 5:1” value was 32.9%.
